For this test, the target named is Pertuzumab, 2 weeks stressed in PBS, pH 7.4. The test can be described thus: SPR; Biacore T200; pertuzumab immobilized on a Series S Protein A sensor chip (145 RU); single-cycle kinetics, five sequential injections of HER2 from 1.22 to 100 nM; phosphate-buffered saline with 0.05% Tween 20; flow 30 μL/min; 1:1 binding model. (Surface plasmon resonance follows binding to a sensor surface in real time, without labels.)

Broadly, the pKd is the negative decadic logarithm of the Kd, by convention in mol/L.

pKd: −log10 of the molar value.

Sequence of Pertuzumab, 2 weeks stressed in PBS, pH 7.4 (heavy, as listed by the source, chain 1 of 2): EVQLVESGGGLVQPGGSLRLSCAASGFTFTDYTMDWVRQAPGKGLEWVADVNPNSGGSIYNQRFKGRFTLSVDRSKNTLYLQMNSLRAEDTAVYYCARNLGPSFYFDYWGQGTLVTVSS
Sequence of Pertuzumab, 2 weeks stressed in PBS, pH 7.4 (light, as listed by the source, chain 2 of 2): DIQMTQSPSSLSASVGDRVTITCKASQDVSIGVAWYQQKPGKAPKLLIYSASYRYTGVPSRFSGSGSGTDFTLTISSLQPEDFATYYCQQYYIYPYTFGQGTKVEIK

As to “Human HER2/ErbB2 protein, extracellular domain Thr23-Thr652, His Tag (from UniProt P04626 23-652) (domain or fragment)”, the pKd is 8.64.

Source of the values: article PMC9979147.
